These results are taken from article PMC6677920 (2019).

For this experiment, the target named is recombinant bovine respiratory syncytial virus fusion (F) protein, purified (bovine respiratory syncytial virus, UniProt P22167 26-513). Nature of the experiment: SPR.

B1: hybrid Fab B4* (B4 HC/B13 LC) (Fab, V domains shown)
VH: QVQLQESGPSLVKPSQTLSLTCTVSGFSLSSYSVSWVRQAPGKTLEWLGDASNGGIIYYNPALKSRLGITRDNSKSQVSLSLNTITPEDTATYYCAKCSVGDSGSYACTGRKGEYVDAWGQGLLVTVSS
VL: QAVLTQPPSVSGSLGQRVSITCSGSSDNIGIFAVGWYQQVPGSGLRTIIYGNTKRPSGVPDRFSGSKSGNTATLTINSLQAEDEADYFCVCGESKSATPVFGGGTTLTVL
Take B1: the Kd (usually the constant that tells how readily two partners part at equilibrium) was roughly 12 µM.
